# Test results as given in US20260085127A1 (BRIGHTPATH BIOTHERAPEUTICS, published 2026).
# T1: human CD39 (Accession No. NM_001776.6) expressed on cells (human, UniProt P49961 1-510)
# T1 construct: whole, on cells; On Jurkat, 293T or SK-MEL28 cells; also called Jurkat/CD39; 293T/CD39
# T1 sequence (looked up): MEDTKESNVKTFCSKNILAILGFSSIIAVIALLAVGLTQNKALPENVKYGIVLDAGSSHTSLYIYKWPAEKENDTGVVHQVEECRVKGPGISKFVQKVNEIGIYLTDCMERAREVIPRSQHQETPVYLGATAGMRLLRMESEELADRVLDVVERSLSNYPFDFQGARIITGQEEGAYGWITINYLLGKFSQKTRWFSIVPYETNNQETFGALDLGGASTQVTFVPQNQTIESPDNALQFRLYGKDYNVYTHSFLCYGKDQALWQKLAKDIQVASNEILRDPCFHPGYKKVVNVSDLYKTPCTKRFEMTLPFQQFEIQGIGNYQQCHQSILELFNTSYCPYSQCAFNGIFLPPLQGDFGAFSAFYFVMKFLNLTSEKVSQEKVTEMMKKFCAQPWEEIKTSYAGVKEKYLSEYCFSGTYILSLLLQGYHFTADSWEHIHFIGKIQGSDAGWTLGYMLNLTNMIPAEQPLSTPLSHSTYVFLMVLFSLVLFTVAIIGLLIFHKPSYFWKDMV
# T2: recombinant human CD39 (in-house product, 38 to 478 aa of Accession No. NM_001776.6) (human, UniProt P49961 38-478)
# T2 construct: also called rhCD39; human CD39-ECD; not shown: Myc and His tags at the C-terminus are named only for the PE-lab
# T2 sequence (looked up): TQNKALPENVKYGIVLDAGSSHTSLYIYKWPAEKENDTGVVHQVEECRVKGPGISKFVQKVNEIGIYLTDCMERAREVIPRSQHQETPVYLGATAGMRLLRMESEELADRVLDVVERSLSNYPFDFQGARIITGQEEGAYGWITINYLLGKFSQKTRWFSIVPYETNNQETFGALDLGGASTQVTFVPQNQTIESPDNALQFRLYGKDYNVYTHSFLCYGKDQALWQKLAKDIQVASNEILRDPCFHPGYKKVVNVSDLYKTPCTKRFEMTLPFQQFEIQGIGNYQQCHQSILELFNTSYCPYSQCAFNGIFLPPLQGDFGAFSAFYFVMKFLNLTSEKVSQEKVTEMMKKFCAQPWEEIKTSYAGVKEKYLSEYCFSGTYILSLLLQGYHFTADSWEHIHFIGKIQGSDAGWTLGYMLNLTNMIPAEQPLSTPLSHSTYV
# Experiments:
# [1] = molecular target: T1, human CD39 (Accession No. NM_001776.6) …; assay: flow cytometry, 293T/CD39 cells, KD from MFI
# [2] = molecular target: T1, human CD39 (Accession No. NM_001776.6) …; assay: flow cytometry, 293T/TIM-3 + CD39 cells, KD from MFI
# [3] = molecular target: T1, human CD39 (Accession No. NM_001776.6) …; assay: flow cytometry, Jurkat/CD39 cells, KD from MFI
# [4] = molecular target: T3, human TIM-3 (Accession No. JX049979.1) stably expressed on cells (human, UniProt Q8TDQ0 22-301); assay: flow cytometry, Jurkat/TIM-3 cells, KD from MFI
# T3 construct: whole, on cells; On Jurkat or 293T cells; also called Jurkat/TIM-3; 293T/TIM-3
# [5] = molecular target: T2, recombinant human CD39 (in-house …); assay: SPR Biacore8K, antibody captured on anti-human IgG, antigen as analyte
# [6] = molecular target: T4, biotinylated human TIM-3-Fc antigen (in-house product, SEQ ID No: 118) (human, biotinylated); assay: flow cytometry, inhibition of biotinylated TIM-3-Fc binding to phosphatidylserine on apoptotic Jurkat cells
# [7] = molecular target: T4, biotinylated human TIM-3-Fc antigen …; assay: competition ELISA: human Galectin-9 coated, biotinylated human TIM-3-Fc pre-mixed with the antibody dilution series, Streptavidin-HRP, A450; blocked ligand: human Galectin-9
# [8] = molecular target: T1, human CD39 (Accession No. NM_001776.6) …; assay: flow cytometry, Jurkat/TIM-3 + CD39 cells, KD from MFI
Kd [1],Kd [2],Kd [3],Kd [4],Kd [5],IC50 [6],IC50 (read off the curve) [7],Kd [8],koff [5],kon [5],Binder
1.73 nM,4.19 nM,,,,,,,,,"I67_LA (antibody, V domains shown, also called IgG1-LALA antibody of anti-CD39 antibody I67) VH: DVQLQESGPSLVQPSQSLSINCTVSGFSLSSYGVHWVRQSPGKGLEWLGVIWRRGSTDYNAAFMSRLSITKDNSKSQVFFKMNRLQADDTATYYCAKGISTATSWFAYWGQGTLVTVSA VL: DIVMTQSHKFMSTSVGDRVSVTCKASQNVGTNVAWYQQKPGQSPKALIYSASYRYSGVPDRFTGSGSGTDFTLTISNVQSEDLAEYFCQQYNSYPLTFGAGTKLELK"
2.44 nM,4.79 nM,,,,,,,,,"Tre291_LA (antibody, V domains shown) VH: QVQLKQSGPGLVQPSQSLSITCTVSGFSLTSYGVHWVRQSPGKGLEWLGVIWRRGSTDYNAAFMSRLSITKDTSKSQVFFKMNSLQTDDTAIYYCAGVRGDAMDYWGQGTSVTVSS VL: DIVMTQSHKSMSTSVGDRVSVTCKASQNVGTNVAWYQQKPGQSPKALIYSASYRYSGVPDRFTGSGSGTDFTLTISNVQSEDLAEYFCQQYNSYPLTFGGGTKLEIK"
1.8 nM,3.66 nM,,,,,,,,,"mAnE67_LA (antibody, V domains shown, also called IgG1-LALA antibody of anti-CD39 antibody mAnE67) VH: EVQLVESGGGLVKPGGSRKLSCAASGFTFSDYGMHWVRQAPEKGLEWVAYISSGSSIIYYADTVKGRFTISRDNAKNTLFLQMTGLRSEDTAMYYCARKDYPYAMDYWGQGTSLAVSS VL: SIVMTQTPKFMSTSVGDRVSVTCKASQNVGTNVAWYQQKPGQSPKALIYWASNRFTGVPDRFTGSGSGTDFTLTISNVQSEDLADYFCQQYSSSPYTFGSGTKLEIK"
2.67 nM,5.09 nM,,,,,,,,,"T86_LA (antibody, V domains shown, also called IgG1-LALA antibody of anti-CD39 antibody T86) VH: QIQLVQSGPELKKPGETVKISCEASGYTFINYGMNWVKQAPGKGLKWMGWINTYTGEPTYADDFKGRFAFSLETSANTAYLQINNLKNEDTATYFCARKGYYGYPNYYAMDYWGQGTSVTVSS VL: DIVMTQSQKFMSTSVGDRVSITCKASQNVGTAVAWYQQKPGQSPKLLIYSASNRYTGVPDRFTGSGSGTDFTLTISNMQSEDLADYFCQQYSSYPITFGTGTKLEIK"
,,18.8 nM,2.77 nM,1.74 nM,30.8 nM,~2 nM,,,,T86_Hu003_Ct (bispecific antibody) chain 1: QIQLVQSGPELKKPGETVKISCEASGYTFINYGMNWVKQAPGKGLKWMGWINTYTGEPTYADDFKGRFAFSLETSANTAYLQINNLKNEDTATYFCARKGYYGYPNYYAMDYWGQGTSVTVSSGGGGSGGGGSGGGGSGGGGSDIVMTQSQKFMSTSVGDRVSITCKASQNVGTAVAWYQQKPGQSPKLLIYSASNRYTGVPDRFTGSGSGTDFTLTISNMQSEDLADYFCQQYSSYPITFGTGTKLEIK chain 2: QVQLQESGGGLVKPGGSLKLSCAASGFTFSSYYMSWVRQTPDKRLEWVATISNSGGSTYYPDSVKDRFTISRDNAKNTLYLQMSSLKSEDTAMYYCARDPYYTNYVPMDYWGQGTMVTVSSGGGGSGGGGSGGGGSGGGGSDIVMTQSPSFLSASVGDRVTITCKASQYVDTYVAWYQQRPGKAPKPLIYSASTRHTGVPSRFSGSGSGTEFTLTISSLQPEDFATYFCAQYSSSPLTFGGGTKLELK
,,237 nM,1.92 nM,0.355 nM,16.1 nM,~2 nM,,,,6-3hIG_Hu003_Ct (bispecific antibody) chain 1: QVQLVQSGAELVKPGASVKLSCKASGFSIKDTYVHWVKQAPGKGLEWIGKIDPANVNTKFDPKFQGRVTITADTSTNTAYLQLSSLRSEDTAVYYCALYGYDDDAYYFDYWGQGTLVTVSSGGGGSGGGGSGGGGSGGGGSEIVLTQSPASLSVSPGERATISCRASESVDNYGISFMNWFQQKPGQAPKLLIYAASNQGSGVPARFSGSGSGTDFTLTISSLEPEDFAVYYCQQSKEVPYTFGQGTKLEIK chain 2: QVQLQESGGGLVKPGGSLKLSCAASGFTFSSYYMSWVRQTPDKRLEWVATISNSGGSTYYPDSVKDRFTISRDNAKNTLYLQMSSLKSEDTAMYYCARDPYYTNYVPMDYWGQGTMVTVSSGGGGSGGGGSGGGGSGGGGSDIVMTQSPSFLSASVGDRVTITCKASQYVDTYVAWYQQRPGKAPKPLIYSASTRHTGVPSRFSGSGSGTEFTLTISSLQPEDFATYFCAQYSSSPLTFGGGTKLELK
3.56 nM,16.9 nM,2.18 nM,,4.28 nM,,,2.25 nM,0.000823 s⁻¹,192000 M⁻¹ s⁻¹,"T86_sc (antibody, scFv-Fc homodimer, anti-CD39 (mouse variable regions); also called scFv-Fc homodimeric antibody of anti-CD39_scFv antibody T86; not shown: linker and Fc-LALA (human IgG1 Fc with L234A and L235A)) scFv: QIQLVQSGPELKKPGETVKISCEASGYTFINYGMNWVKQAPGKGLKWMGWINTYTGEPTYADDFKGRFAFSLETSANTAYLQINNLKNEDTATYFCARKGYYGYPNYYAMDYWGQGTSVTVSSGGGGSGGGGSGGGGSGGGGSDIVMTQSQKFMSTSVGDRVSITCKASQNVGTAVAWYQQKPGQSPKLLIYSASNRYTGVPDRFTGSGSGTDFTLTISNMQSEDLADYFCQQYSSYPITFGTGTKLEIK"
,,22.6 nM,2.13 nM,2.79 nM,28.3 nM,~1 nM,,,,Tre291_Hu003_Ct (bispecific antibody) chain 1: QVQLKQSGPGLVQPSQSLSITCTVSGFSLTSYGVHWVRQSPGKGLEWLGVIWRRGSTDYNAAFMSRLSITKDTSKSQVFFKMNSLQTDDTAIYYCAGVRGDAMDYWGQGTSVTVSSGGGGSGGGGSGGGGSGGGGSDIVMTQSHKSMSTSVGDRVSVTCKASQNVGTNVAWYQQKPGQSPKALIYSASYRYSGVPDRFTGSGSGTDFTLTISNVQSEDLAEYFCQQYNSYPLTFGGGTKLEIK chain 2: QVQLQESGGGLVKPGGSLKLSCAASGFTFSSYYMSWVRQTPDKRLEWVATISNSGGSTYYPDSVKDRFTISRDNAKNTLYLQMSSLKSEDTAMYYCARDPYYTNYVPMDYWGQGTMVTVSSGGGGSGGGGSGGGGSGGGGSDIVMTQSPSFLSASVGDRVTITCKASQYVDTYVAWYQQRPGKAPKPLIYSASTRHTGVPSRFSGSGSGTEFTLTISSLQPEDFATYFCAQYSSSPLTFGGGTKLELK
,,2.69 nM,1.49 nM,2.26 nM,24.7 nM,,,,,mAnE67_Hu003_Ct (bispecific antibody) chain 1: EVQLVESGGGLVKPGGSRKLSCAASGFTFSDYGMHWVRQAPEKGLEWVAYISSGSSIIYYADTVKGRFTISRDNAKNTLFLQMTGLRSEDTAMYYCARKDYPYAMDYWGQGTSLAVSSGGGGSGGGGSGGGGSGGGGSSIVMTQTPKFMSTSVGDRVSVTCKASQNVGTNVAWYQQKPGQSPKALIYWASNRFTGVPDRFTGSGSGTDFTLTISNVQSEDLADYFCQQYSSSPYTFGSGTKLEIK chain 2: QVQLQESGGGLVKPGGSLKLSCAASGFTFSSYYMSWVRQTPDKRLEWVATISNSGGSTYYPDSVKDRFTISRDNAKNTLYLQMSSLKSEDTAMYYCARDPYYTNYVPMDYWGQGTMVTVSSGGGGSGGGGSGGGGSGGGGSDIVMTQSPSFLSASVGDRVTITCKASQYVDTYVAWYQQRPGKAPKPLIYSASTRHTGVPSRFSGSGSGTEFTLTISSLQPEDFATYFCAQYSSSPLTFGGGTKLELK
,,14.1 nM,1.86 nM,1.63 nM,27.2 nM,~2 nM,,,,I67_Hu003_Ct (bispecific antibody) chain 1: DVQLQESGPSLVQPSQSLSINCTVSGFSLSSYGVHWVRQSPGKGLEWLGVIWRRGSTDYNAAFMSRLSITKDNSKSQVFFKMNRLQADDTATYYCAKGISTATSWFAYWGQGTLVTVSAGGGGSGGGGSGGGGSGGGGSDIVMTQSHKFMSTSVGDRVSVTCKASQNVGTNVAWYQQKPGQSPKALIYSASYRYSGVPDRFTGSGSGTDFTLTISNVQSEDLAEYFCQQYNSYPLTFGAGTKLELK chain 2: QVQLQESGGGLVKPGGSLKLSCAASGFTFSSYYMSWVRQTPDKRLEWVATISNSGGSTYYPDSVKDRFTISRDNAKNTLYLQMSSLKSEDTAMYYCARDPYYTNYVPMDYWGQGTMVTVSSGGGGSGGGGSGGGGSGGGGSDIVMTQSPSFLSASVGDRVTITCKASQYVDTYVAWYQQRPGKAPKPLIYSASTRHTGVPSRFSGSGSGTEFTLTISSLQPEDFATYFCAQYSSSPLTFGGGTKLELK
